Data as given in patent US20030180744, “High affinity oligonucleotide ligands to growth factors” (GILEAD SCIENCES, INC., published 2003).
Residue numbers refer to the chain shown, from its start.

Key:
PDGF-AB [1] = target: T1, PDGF-AB (Homo sapiens, UniProt P04085;P01127 P04085:87-211,P01127:82-190); test: filter; +/-34; high affinity component of biphasic binding; conditions: tags: R&D Systems, E. coli
Protocol: (§1) Briefly, the 2′-fluoro-2′-deoxypyrimidine RNA for affinity selections was prepared by in vitro transcription from synthetic DNA templates using T7 RNA polymerase (Milligan et al., Nucl. Acids Res. 15:8783 (1987)). The conditions for in vitro transcription described in detail previously (Jellinek et al., (1994) supra) were used, except that higher concentration (3 mM) of the 2′-fluoro-2′-deoxypyrimidine nucleoside triphosphates (2′-F-UTP and 2′-F-CTP) was used compared to ATP and GTP (1 mM). Affinity selections were done by incubating PDGF AB with 2′-fluoro-2′-deoxypyrimidine RNA for at least 15 min at 37° C. in PBS containing 0.01% human serum albumin. Partitioning of free RNA from protein-bound RNA was done by nitrocellulose filtration as described (Jellinek et al., (1993, 1994) supra). Reverse transcription of the affinity-selected RNA and amplification by PCR were done as described previously (Jellinek et al., (1994) supra). […] The affinity-enriched pool (round 19) was cloned and sequenced as described (Schneider et al., (1992) supra). The unique-sequence ligands were screened for their ability to bind PDGF AB with high affinity.

TGFβ1 [2] = target: T2, TGFβ1 (Homo sapiens, UniProt P01137 P01137:279-390); test: filter; cell IC50 103 and 112 nM; fully effective only against TGFβ1, not TGFβ2 or TGFβ3; conditions: tags: Genentech; biotinylated version used in bead assay; chain copies: 2
T2 sequence (P01137 279-390, one chain of several): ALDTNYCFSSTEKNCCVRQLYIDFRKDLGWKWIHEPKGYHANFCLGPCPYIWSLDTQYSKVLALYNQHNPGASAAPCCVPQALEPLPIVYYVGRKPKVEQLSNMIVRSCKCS

TGFβ1 [3] = target: T2, TGFβ1; test: filter; C to G at position 53; not inhibitory; conditions: tags: Genentech; biotinylated version used in bead assay; chain copies: 2
TGFβ1 [4] = target: T2, TGFβ1; test: cell_activity; conditions: tags: Genentech or R&D Systems; chain copies: 2
Protocol: MLEC-Pail/luc cells were plated at 3.2×10⁴ cells per well in a 96 well Falcon plate, in 100 μl of DME+10% fetal bovine serum overnight. Media was made from autoclaved water. The cells were washed three times ([…]) in serum free DME plus Solution A (1:1). Solution A is 30 mM Hepes pH 7.6, 10 mM glucose, 3.0 mM KCl, 131 mM NaCl, 1.0 mM disodium phosphate. Samples (100 μl) were added in DME containing 20 mM Hepes pH 7.5, and 0.1% BSA (Fluka, radioimmunoassay grade). All samples were in triplicate. After six hours at 37° C. in a 5% CO₂ incubator the media was removed and cells were washed three times (100 μl each) in cold PBS. Lysis buffer (75 μl) (Analytical Luminescence Laboratory) was added and the plates incubated on ice for 20 min. The plates were sealed and frozen at −80° C. until assayed. Samples (25 μl) were assayed for luciferase activity with the Enhanced Luciferase Assay Kit from Analytical Luminescence Laboratory (San Diego, Calif., USA) according to the manufacturer's instructions using the Berthold Microlumat LB96P luminometer.
Ligands tested for inhibition of TGFβ1 activity were tested at a minimum of five concentrations. The ligands were serially diluted in DME, 20 mM Hepes pH 7.5, 0.1% Fluka BSA in polypropylene tubes and an equal volume of media containing 12 pM TGFβ1 was added to each tube, vortexed and transferred to the cells without further incubation.

TGFβ1 [5] = target: T2, TGFβ1; test: filter; cell IC50 119 nM; conditions: tags: Genentech; biotinylated version used in bead assay; chain copies: 2
TGFβ1 [6] = target: T2, TGFβ1; test: filter; cell IC50 22 nM; conditions: tags: Genentech; biotinylated version used in bead assay; chain copies: 2
TGFβ1 [7] = target: T2, TGFβ1; test: filter; 2'-OH RNA; conditions: tags: Genentech; biotinylated version used in bead assay; chain copies: 2
PDGF-AA [8] = target: T3, PDGF-AA (Homo sapiens, UniProt P04085 P04085:87-211); test: filter; +/-4; PBSM, 0.01% HSA, 37 C; comparable to random DNA; conditions: tags: R&D Systems, E. coli, long form of A-chain; chain copies: 2 (inferred); label: 5'-32P; three-way helix junction
Protocol: (§2) The fraction of ³²P 5′ nd-labeled DNA ligands bound to varying concentrations of PDGF was determined by the nitrocellulose filter binding method. Minimal ligands tested were 20t (o), 36t (Δ), and 41t (□). Oligonucleotide concentrations in these experiments were ≈10 pM (PDGF-AB and PDGF-BB) and ≈50 pM (PDGF AA). Data points were fitted to eq. 1 (for binding of the DNA ligands to PDGF-AA) or to eq. 2 (for binding to PDGF AB and BB) using the non-linear least squares method. Binding reactions were done at 37° C. in binding buffer (PBSM with 0.01% HSA).
(§3) The binding of ssDNA ligands at low concentrations to varying concentrations of PDGF was determined by the nitrocellulose filter binding method as described (Green et al., (1995) Chemistry and Biology 2:683-695). The concentrations of PDGF stock solutions (in PBS) were determined from the absorbance readings at 280 nm using the following e₂₈₀ values calculated from the amino acid sequences (Gill, S.C. and von Hippel, P. H. (1989) Anal. Biochem. 182:319-326): 19,500 M⁻¹cm⁻¹ for PDGF-AA, 15,700 M⁻¹cm⁻¹ for PDGF-AB and 11,800 M⁻¹cm⁻¹ for PDGF-BB. ssDNA for all binding experiments were purified by electrophoresis on 8% (>80 nucleotides) or 12% (<40 nucleotides) polyacrylamide/7 M urea gels. […]

PDGF-BB [9] = target: T4, PDGF-BB (Homo sapiens, UniProt P01127 P01127:82-190); test: filter; +/-0.031; high affinity component; PBSM, 37 C; conditions: tags: R&D Systems, E. coli; chain copies: 2 (inferred); label: 5'-32P; three-way helix junction
T4 sequence (P01127 82-190, one chain of several): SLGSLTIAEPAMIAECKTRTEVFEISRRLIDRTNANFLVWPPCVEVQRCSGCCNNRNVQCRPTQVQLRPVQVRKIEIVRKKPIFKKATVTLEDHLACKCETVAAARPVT
Protocol: as §2
(§4) ^aData points shown in FIG. 5A were fitted to eq 1 (Example 7). ^bData points in FIGS. 5B and 5C were fitted to eq. 2.

PDGF-AB [10] = target: T1, PDGF-AB; test: filter; +/-0.011; high affinity component; PBSM, 37 C; conditions: tags: R&D Systems, E. coli; label: 5'-32P; three-way helix junction
Protocol: as §2
(§5) The binding of ssDNA ligands at low concentrations to varying concentrations of PDGF was determined by the nitrocellulose filter binding method as described (Green et al., (1995) Chemistry and Biology 2:683-695). The concentrations of PDGF stock solutions (in PBS) were determined from the absorbance readings at 280 nm using the following e₂₈₀ values calculated from the amino acid sequences (Gill, S.C. and von Hippel, P. H. (1989) Anal. Biochem. 182:319-326): 19,500 M⁻¹cm⁻¹ for PDGF-AA, 15,700 M⁻¹cm⁻¹ for PDGF-AB and 11,800 M⁻¹cm⁻¹ for PDGF-BB. ssDNA for all binding experiments were purified by electrophoresis on 8% (>80 nucleotides) or 12% (<40 nucleotides) polyacrylamide/7 M urea gels. All ssDNA ligands were heated at 90° C. in binding buffer at high dilution (1 μM) for 2 min and cooled on ice prior to further dilution into the protein solution. The binding mixtures were typically incubated for 15 min at 37° C. before partitioning on nitrocellulose filters.
as §4

PDGF-AB [11] = target: T1, PDGF-AB; test: filter; thrombin aptamer control; conditions: tags: R&D Systems, E. coli; stem-loop
Protocol: as §5

TGFβ1 [12] = target: T2, TGFβ1; test: filter; not inhibitory; no binding with 2'-NH2 pyrimidines; conditions: tags: Genentech; biotinylated version used in bead assay; chain copies: 2
PDGF-AA [13] = target: T3, PDGF-AA; test: filter; +/-12; PBSM, 37 C; comparable to random DNA; conditions: tags: R&D Systems, E. coli, long form of A-chain; chain copies: 2 (inferred); label: 5'-32P; three-way helix junction
Protocol: as §2, §3

PDGF-BB [14] = target: T4, PDGF-BB; test: filter; +/-0.009; high affinity component; PBSM, 37 C; conditions: tags: R&D Systems, E. coli; chain copies: 2 (inferred); label: 5'-32P; three-way helix junction
Protocol: as §2, §3

TGFβ1 [15] = target: T2, TGFβ1; test: filter; 37 C; cell IC50 49 nM; conditions: tags: Genentech; biotinylated version used in bead assay; chain copies: 2
TGFβ1 [16] = target: T2, TGFβ1; test: filter; 2'-OH RNA; printed lib1-6-8 in Table 4; conditions: tags: Genentech; biotinylated version used in bead assay; chain copies: 2
TGFβ1 [17] = target: T2, TGFβ1; test: filter; cell IC50 298 and 201 nM; conditions: tags: Genentech; biotinylated version used in bead assay; chain copies: 2
PDGF-AA [18] = target: T3, PDGF-AA; test: filter; +/-8; PBSM, 37 C; comparable to random DNA; conditions: tags: R&D Systems, E. coli, long form of A-chain; chain copies: 2 (inferred); label: 5'-32P; three-way helix junction
Protocol: as §2, §3

PDGF-BB [19] = target: T4, PDGF-BB; test: filter; +/-0.011; high affinity component; PBSM, 37 C; conditions: tags: R&D Systems, E. coli; chain copies: 2 (inferred); label: 5'-32P; three-way helix junction
Protocol: as §2, §5, §4

PDGF-AB [20] = target: T1, PDGF-AB; test: filter; +/-0.009; high affinity component; PBSM, 37 C; conditions: tags: R&D Systems, E. coli; label: 5'-32P; three-way helix junction
Protocol: as §2, §3

PDGF-AB [21] = target: T1, PDGF-AB; test: filter; +/-38; high affinity component of biphasic binding; conditions: tags: R&D Systems, E. coli
Protocol: as §1

T1 sequence (P01127 82-190, chain 2 of 2, other chains not shown): as the sequence (P01127 82-190, one chain of several) above

B1: PDGF 2'-F clone 16 (ssRNA)
RNA: GGGAGACAAGAAUAACGCUCAACGAACGAGGAGGGAGUGGCAAGGGAUGGUUGGAUAGGCUCUACGCUCAUUCGACAGGAGGCUCACAACAGGC
modifications: 2'-F pyrimidines
PDGF-AB [1]
  Kd: 0.116 nM

B2: lib2-6-1 (ssRNA)
RNA: GGGGGAGAACGCGGAUCCUGUCUCCACCGCCGAUACUGGGGUUCCUGGGGCCCCUCCAUGCAGGAGGGGGGUGGUUCGGAGAAAGCUUCGCUCUAGAUCUCCCUUUAGUGAGGGUUA
modifications: 2'-NH2 U, 2'-F C
TGFβ1 [2]
  Kd: 14.3 nM

B3: lib8-23 (ssRNA)
RNA: B2 RNA with C53G
modifications: 2'-NH2 U, 2'-F C
TGFβ1 [3]
  Kd: 6.6 nM

B4: lib3-44 (ssRNA)
RNA: GGGGGAGAACGCGGAUCCUGAGAAGGACGUCGGGGUGAGGUGCAGCAGAAAGGGCCGGCACCACAUGACGUAAAAGCUUCGCUCUAGAUCUCCCUUUAGUGAGGGUUA
modifications: 2'-NH2 pyrimidines
TGFβ1 [4]
  IC50: 119 nM
TGFβ1 [5]
  Kd: 1.3 nM

B5: lib3-42 (ssRNA)
RNA: GGGGGAGAACGCGGAUCCGGUGGGAAAGUCGGAUUAUGUGUGUAGAUUUGUGUGCGAAAGCUUCGCUCUAGAUCUCCCUUUAGUGAGGGUUA
modifications: 2'-NH2 pyrimidines
TGFβ1 [4]
  IC50: 22 nM
TGFβ1 [6]
  Kd: 0.6 nM

B6: lib1-20-12 (ssRNA)
RNA: GGGGGAGAACGCGGAUCCGGUCACCCGGGCAUAUAACAAUGCCGACACUGGGGUACCUGGGACGGGUGGGACUGGACGGAAGAAGCUUCGCUCUAGAUCUCCCUUUAGUGAGGGUUA
TGFβ1 [7]
  Kd: 3.1 nM

## TGGGAGGGCGCGTTCTTCGTGGTTACTTTTAGTCCCGT (ssDNA, 3'-3' linked T at 3' end) [20t]
PDGF-AA [8]
  Kd: 47 nM
PDGF-BB [9]
  Kd: 0.127 nM
PDGF-AB [10]
  Kd: 0.147 nM

## CAGTCCGTGGTAGGGCAGGTTGGGGTGACTTCGTGGAAT (ssDNA, 3'-3' linked T at 3' end) [T39]
PDGF-AB [11]
  Kd: 230 nM

B7: lib1-20-3 (ssRNA)
RNA: GGGGGAGAACGCGGAUCCUGCUAGACCGAGGAUGCAAAGGGACAUGCAUUAGGGAAACCUAUGUAUAAGAACGCGGUCGCAGAAGCUUCGCUCUAGAUCUCCCUUUAGUGAGGGUUA
modifications: 2'-F pyrimidines
TGFβ1 [12]
  Kd: 30 nM

## CACAGGCTACGGCACGTAGAGCATCACCATGATCCTGTGT (ssDNA, 3'-3' linked T at 3' end) [36t]
PDGF-AA [13]
  Kd: 72 nM
PDGF-AB [10]
  Kd: 0.094 nM
PDGF-BB [14]
  Kd: 0.093 nM

B8: lib5-5 (ssRNA)
RNA: GGGGGAGAACGCGGAUCCGAGCAAUCCCAGGCGCAUAGCUUCCGAGUAGACAGGAGGGAGGGGUGGAUGUGGCGUCUCGAGGAAGCUUCGCUCUAGAUCUCCCUUUAGUGAGGGUUA
modifications: 2'-NH2 pyrimidines
TGFβ1 [4]
  IC50: 49 nM
TGFβ1 [15]
  Kd: 2.4 nM

B9: lib2-6-8 (lib1-6-8 in Table 4) (ssRNA)
RNA: GGGGGAGAACGCGGAUCCAUAACCGGCUGCAUGGGAGGGACAUCCUGGGAAAGGACGGGUCGAGAUGACCUGAGCAGUUCCGGCAAGCUUCGCUCUAGAUCUCCCUUUAGUGAGGGUUA
TGFβ1 [16]
  Kd: 4.7 nM

B10: lib2-6-1-81 (ssRNA)
RNA: GGGGGAGAACGCGGAUCCUGUCUCCACCGCCGAUACUGGGGUUCCUGGGGCCCCUCCAUGCAGGAGGGGGGUGGUUCGGAG
modifications: 2'-NH2 U, 2'-F C
TGFβ1 [17]
  Kd: 10.7 nM

## TACTCAGGGCACTGCAAGCAATTGTGGTCCCAATGGGCTGAGTAT (ssDNA, 3'-3' linked T at 3' end) [41t]
PDGF-AA [18]
  Kd: 49 nM
PDGF-BB [19]
  Kd: 0.129 nM
PDGF-AB [20]
  Kd: 0.138 nM

B11: PDGF 2'-F clone 23 (ssRNA)
RNA: GGGAGACAAGAAUAACGCUCAAUCGAUCGGUUGUGUGCCGGACAGCUUUGACCAUGAGCUGGGACCGAGGCCUUCGACAGGAGGCUCACAACAGGC
modifications: 2'-F pyrimidines
PDGF-AB [21]
  Kd: 0.173 nM
